Reference: patent US20190262327A1 (AstraZeneca / MedImmune, published 2019)
Positions count from the first letter of the chain named. One block for each binder: values may come before it.

Assays:
[1] = molecular target: T1, biotinylated synthetic human Amyloid beta 1-42 peptide (human, UniProt P05067 672-713, biotinylated (N-terminal biotin in Example 4)); assay: HTRF epitope competition; purified scFv titrated; competitor Abet0144-GL IgG1-TM
T1 construct: domain: Amyloid beta 1-42 peptide; Numbers 1-42 count on the Amyloid beta peptide, not on APP; also called biotinylated human Amyloid beta 1-42; N-terminal biotin Abeta 1-42
T1 sequence (P05067 672-713 limits assumed): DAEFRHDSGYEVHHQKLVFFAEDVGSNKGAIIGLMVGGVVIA
Experimental: (§1) Two thousand and twenty four scFv chosen at random from selection rounds 3 and 4 of the targeted mutagenesis approach described in section 1.2 were expressed in bacteria to produce unpurified periplasmic scFv.
(§2) One thousand six hundred and seventy two scFv, randomly selected from selection rounds 9 to 11, were screened in an epitope competition assay as described in section 1.3.
(§3) Where the assay was performed more than once, the absolute range of IC₅₀ values is provided.

[2] = molecular target: T1, biotinylated synthetic human Amyloid …; assay: SPR (ProteOn); biotinylated peptide on streptavidin chip, scFv in solution
Experimental: These experiments were performed essentially as described by Karlsson et al. (Karlsson et al., 1991).
The chip surface was regenerated between cycles by a single 60 second injection of 10 mM Glycine pH 2.0 to remove scFv bound to the peptide.
Each scFv at 100-200 nM was sequentially passed over the peptide surface for a sufficient amount of time to observe sensorgrams that could be fitted to an appropriate binding model with confidence. An irrelevant scFv blank was subtracted from the main dataset to reduce the impact of any buffer artefacts or non-specific binding effects. An appropriate binding model was then fitted to the data.

[3] = molecular target: T1, biotinylated synthetic human Amyloid …; assay: HTRF epitope competition; purified scFv titrated; competitor Abet0144-GL IgG1-TM; range of repeats
Experimental: as §1, §2, §3

IC50 [1]: 0.91 nM
Kd [2]: 0.391 nM
koff [2]: 0.000129 s⁻¹
kon [2]: 329000 M⁻¹ s⁻¹
B1: Abet0332 scFv (scFv, V domains shown, not shown: small tags and cut ends)
VH: EVQLLESGGGLVQPGESLRLSCAASSDSWHTDIMWWVRQAPGKRLEWVSVIGNSNKKIAYADSVKGRFTISRDNSKNTLYLQMNSLRAEDTAVYYCAREWMDHSRPYYYYGMDVWGQGTLVTVSS
VL: SYELTQPPSVSVSPGQTASITCSGHNIGAKWVSWYQQKPGQSPILVIYRDDKRPSGIPERFSASNSGHTATLTISGTQATDEADYYCQAQGQVTRSFGGGTKLTVL
notes: Purified scFv expressed in E. coli

IC50 [1]: 0.48 nM
Kd [2]: 0.188 nM
koff [2]: 2.25e-05 s⁻¹
kon [2]: 120000 M⁻¹ s⁻¹
B2: Abet0343 scFv (scFv, V domains shown, not shown: small tags and cut ends)
VH: EVQLLESGGGLVQPGGSLRLSCAASGFNFNHQVMWWVRQAPGKGLEWVSVIGKTNENIAYADSVKGRFTISRDNSKNTLYLQMNSLRAEDTAVYYCAREWMDHSRPYYYYGMDVWGQGTLVTVSS
VL: QSVLTQPPSVSVSPGQTASITCSGHNLEDKFASWYQQKSGQSPVLVIYRDDKRPSGIPERFSASNSGHTATLTISGTQATDEADYYCSSQDTVTRVFGGGTKLTVL
notes: as for B1

IC50 [1]: 0.76 nM
Kd [2]: 0.651 nM
koff [2]: 7.76e-05 s⁻¹
kon [2]: 119000 M⁻¹ s⁻¹
B3: Abet0370 scFv (scFv, V domains shown, not shown: small tags and cut ends)
VH: B2 VH with N28H, N30P, H31M, Q32S, V33A, K53E, N55P, N57R, I58Q, N77S
VL: SYELTQPPSVSVSPGQTASITCTTPHFNSKFASWYQQKPGQSPVLVIYRDDKRPSGIPERFSASNSGHTATLTISGTQAMDEADYYCQAQDSTTRVFGGGTRLTVL
notes: as for B1

IC50 [1]: 0.47 nM
Kd [2]: 0.241 nM
koff [2]: 5.14e-05 s⁻¹
kon [2]: 213000 M⁻¹ s⁻¹
B4: Abet0381 scFv (scFv, V domains shown, not shown: small tags and cut ends)
VH: EVQLLESGGGLVQPGGSLRLSCAASSPSFPRETMWWVRQAPGKGLEWVSVIGTQPNRLTYADSVKGRFTISRDNSKNTLYLQMNSLRAEDTAVYYCAREWMDHSRPYYYYGIDVWGQGTLVTVSP
VL: B2 VL with Q1S, S2Y, V3E, V12A, A32V, S39P, D84N, V96A
notes: as for B1

IC50 [1]: 0.63 nM
Kd [2]: 0.701 nM
koff [2]: 0.000138 s⁻¹
kon [2]: 197000 M⁻¹ s⁻¹
B5: Abet0329 scFv (scFv, V domains shown, not shown: small tags and cut ends)
VH: EVQLLESGGGLVQPGGSLRLSCAASTFNLKRETMWWVRQAPGKGLEWVSVIGSHQERTSYADSVKGRFTISRDNSKNTLYLQMNSLRAEDTAVYYCAREWMDHSRPYYYYGMDVWGQGTLVTVSS
VL: B2 VL with Q1S, S2Y, V3E, L27V, E28S, F31W, A32M, S33T, S39P
notes: as for B1

IC50 [1]: 0.97 nM
Kd [2]: 0.472 nM
koff [2]: 6.41e-05 s⁻¹
kon [2]: 136000 M⁻¹ s⁻¹
B6: Abet0378 scFv (scFv, V domains shown, not shown: small tags and cut ends)
VH: B2 VH with N28P, N30E, H31T, Q32D, V33I, K53T, T54N, N55T, E56D, I58V
VL: B2 VL with Q1S, S2Y, V3E, S39P

IC50 [1]: 0.71 nM
IC50 [3]: 0.43 to 0.98 nM
Kd [2]: 0.812 nM
koff [2]: 0.000165 s⁻¹
kon [2]: 203000 M⁻¹ s⁻¹
B7: Abet0322b scFv (scFv, V domains shown, not shown: small tags and cut ends)
VH: EVQLLESGGGLVQPGGSLRLSCAASNEEFQYNPMWWVRQAPGKGLEWVSVIGSSGGATVYADAVKGRFTISRDNSENTLYLQMNSLRAEDTAVYYCAREWMDHSRPYYYYGMDVWGQGTLVTVSS
VL: B2 VL with Q1S, S2Y, V3E, E28G, S39P, G56E
notes: as for B1

IC50 [1]: 0.84 nM
Kd [2]: 0.483 nM
koff [2]: 8.92e-05 s⁻¹
kon [2]: 185000 M⁻¹ s⁻¹
B8: Abet0373 scFv (scFv, V domains shown, not shown: small tags and cut ends)
VH: EVQLLESGGGLVQPGGSLRLSCVASGFDFERSVMWWVRQAPGKRLEWVSVIGSGKTNITYADSVKGRFTISRDNSKNTLYLQMNSLRAEDTAVYYCAREWMDHSRPYYYYGMDVWGQGTLVTVSS
VL: B2 VL with Q1S, S2Y, V3E, S39P, G56E
notes: as for B1

IC50 [1]: 0.75 nM
Kd [2]: 0.217 nM
koff [2]: 3.94e-05 s⁻¹
kon [2]: 181000 M⁻¹ s⁻¹
B9: Abet0383 scFv (scFv, V domains shown, not shown: small tags and cut ends)
VH: EVQLLESGGGLVQPGGSLKLSCAASGFTFDWYPMWWVRQAPGKRLEWISVIGADNAKIAYADSVKGRFTISRDNSKNTLYLQMNSLRAEDTAVYYCAREWMGHSRPYYYYGMDVWGQGTPVTVSS
VL: B2 VL with Q1S, S2Y, V3E, E28G, S39P
notes: as for B1

IC50 [1]: 0.73 nM
IC50 [3]: 0.69 to 0.76 nM
Kd [2]: 0.222 nM
koff [2]: 3.33e-05 s⁻¹
kon [2]: 150000 M⁻¹ s⁻¹
B10: Abet0321b scFv (scFv, V domains shown, not shown: small tags and cut ends)
VH: EVQLLESGGGLVQPGGSLRLSCAASAYHSNHDPMWWVRQAPGKGLEWVSVIGSSGGTTAYADSVKGRFTISRDNSKNTLYLQMNSLRAEDTAVYYCAREWMDHSRPYYYYGMDVWGQGTLVTVSS
VL: B2 VL with Q1S, S2Y, V3E, S39P, V46I
notes: as for B1

IC50 [1]: 0.77 nM
Kd [2]: 0.739 nM
koff [2]: 5.73e-05 s⁻¹
kon [2]: 77500 M⁻¹ s⁻¹
B11: Abet0344 scFv (scFv, V domains shown, not shown: small tags and cut ends)
VH: EVQLLESGGGLVQPGGSLSLSCAASGFTFSVYTMWWVRQAPGKGLEWVSVIGGNETRKAYADSVKGRFTISRDNSKNRLYLQMNSLRAEDTAVYYCAREWMDHSRPYYYYGMDVWGQGTLVTVSS
VL: B2 VL with S88A, S89T, T92N, V93F
notes: as for B1

IC50 [1]: 0.5 nM
IC50 [3]: 0.46 to 0.53 nM
Kd [2]: 0.762 nM
koff [2]: 0.000272 s⁻¹
kon [2]: 357000 M⁻¹ s⁻¹
B12: Abet0371 scFv (scFv, V domains shown, not shown: small tags and cut ends)
VH: B10 VH with L5S, A26H, Y27D, H28A, S29F, N30P, H31F, P33T, A59V, I70V
VL: B1 VL with G28S, A29S, K30S, I44V, Q88S, A89S, G91D, Q92T, S96V
notes: as for B1

IC50 [1]: 0.55 nM
Kd [2]: 0.482 nM
koff [2]: 9e-05 s⁻¹
kon [2]: 187000 M⁻¹ s⁻¹
B13: Abet0368 scFv (scFv, V domains shown, not shown: small tags and cut ends)
VH: EVQLLESGGGLVQPGGSLRLSCAASGFDFGPSPMWWVRQAPGKGLEWVSVIGKDTQNSTYADSVKGRFTISRDNSKDTLYLQMNSLKAEDTAVYYCAREWMDHSRPYYYYGMDVWGQGTLVTVSS
VL: B2 VL with Q1S, S2Y, V3E, A32T, T77A
notes: as for B1

IC50 [1]: 0.55 nM
Kd [2]: 0.729 nM
koff [2]: 0.000103 s⁻¹
kon [2]: 141000 M⁻¹ s⁻¹
B14: Abet0328 scFv (scFv, V domains shown, not shown: small tags and cut ends)
VH: EVQLLESGGGLVQPGGSLRLSCAASRDPFKADTMWWVRQAPRKRLEWVSVIGAHTTNSAYADSVKGRFTISRDNSKNTLYLQMNSLRAEDTAVYYCAREWMDRSRPYYYYGMDVWGQGTLVTVSS
VL: B2 VL with Q1S, S2Y, V3E, A18V, H25R, S39P, I57V
notes: as for B1

IC50 [1]: 0.68 nM
IC50 [3]: 0.52 to 0.76 nM
Kd [2]: 0.391 nM
koff [2]: 0.000129 s⁻¹
kon [2]: 329000 M⁻¹ s⁻¹
B15: Abet0319 scFv (scFv, V domains shown, not shown: small tags and cut ends)
VH: B10 VH with A26V, Y27S, H28V, S29Y, H31K, P33T, A59V
VL: B1 VL with G28M, A29D, Q41R, I44A, Q88S, A89S, G91D, Q92T, S96V
notes: as for B1

IC50 [1]: 0.69 nM
Kd [2]: 0.327 nM
koff [2]: 4.39e-05 s⁻¹
kon [2]: 134000 M⁻¹ s⁻¹
B16: Abet0379 scFv (scFv, V domains shown, not shown: small tags and cut ends)
VH: EVQLLESGGGLVQPGGSLRLSCAASGFDFAETPLWWVRQAPGERLEWVSVIGSNQNKTAYADSVKGRFTISRDNSKDTLYLQMNSLRAEDTAVYYCAREWMDHSRPYYYYGMDVWGQGTLVTVSS
VL: B2 VL with E82G, S88A, S89T, T92N, V93F
notes: as for B1

IC50 [1]: 0.59 nM
Kd [2]: 0.421 nM
koff [2]: 5.73e-05 s⁻¹
kon [2]: 136000 M⁻¹ s⁻¹
B17: Abet0342 scFv (scFv, V domains shown, not shown: small tags and cut ends)
VH: B13 VH with G30R, P31R, P33V, K53A, D54Q, S58K, T59A, D77N, K87R
VL: B3 VL with T23S, T24G, P25H, H26N, F27L, N28E, S29D, H68D, R102K
notes: as for B1

IC50 [1]: 0.42 nM
IC50 [3]: 0.41 to 0.43 nM
Kd [2]: 0.236 nM
koff [2]: 6.04e-05 s⁻¹
kon [2]: 256000 M⁻¹ s⁻¹
B18: Abet0374 scFv (scFv, V domains shown, not shown: small tags and cut ends)
VH: EVQLLESGGGLVQPGGSLRLSCAASGFQFKDTPMWWVRQAPGKGLEWVSVIGDQNHKKAYADSVKGRFTISRDNSKNTLYLQMNSLRAEDTAVYYCAREWMDHSRPYYYYGMDAWGQGTLVTVSS
VL: B2 VL with Q1S, S2Y, V3E, S13T, E28G, D29G, S39P, S66F
notes: as for B1

IC50 [1]: 0.38 nM
IC50 [3]: 0.26 to 0.49 nM
Kd [2]: 0.724 nM
koff [2]: 0.000176 s⁻¹
kon [2]: 243000 M⁻¹ s⁻¹
B19: Abet0372 scFv (scFv, V domains shown, not shown: small tags and cut ends)
VH: EVQLLESGGGLVQPGGSLRLSCAASSDMFNIETMWWVRQAPGKGLEWVSVIGKGMNNVSYADSVKGRFTISRDNSKNTLYLQMNSLRAEDTAVYYCAREWMDHSRPYYYYGMDVWGQGTLVTVSS
VL: B2 VL with Q1S, S2Y, V3E, S39P
notes: as for B1
